In patent publication US5422104:
Values belong to the substance of their own block, whether it stands above or below them.

Tests used:
[1] = target: recombinant human p75-TNF-R-human IgGγ3 fusion protein (human) (UniProt P20333); experiment: calculated from FIG. 7: competition with 125I-TNFα on plates coated with receptor-IgGγ3 fusions; reference: the same mutein on p55-TNF-R-IgGγ3
[2] = target: human p55-Tumor-Necrosis-Factor-Receptor on Hep-2 cells (human) (UniProt P19438)
[3] = target: human p75-Tumor-Necrosis-Factor-Receptor on U937 cells (human) (UniProt P20333); experiment: competition assay on U937 cells
[4] = target: human p75-Tumor-Necrosis-Factor-Receptor on U937 cells (human) (UniProt P20333); experiment: competition analysis on U937 cells
[5] = target: native human p75-TNF-R purified from HL60 cells (human) (UniProt P20333); experiment: competition with 125I-TNFα for p75-TNF-R
[6] = target: human p75-Tumor-Necrosis-Factor-Receptor on U937 cells (human) (UniProt P20333); experiment: competition analysis, U937 cells against Hep-2 cells
[7] = target: human p75-Tumor-Necrosis-Factor-Receptor on U937 cells (human) (UniProt P20333); experiment: 125I-TNF-α competition, U937 cells, exp 1, mutant 1 × 10^-6 mol
[8] = target: human p75-Tumor-Necrosis-Factor-Receptor on U937 cells (human) (UniProt P20333); experiment: 125I-TNF-α competition, U937 cells, exp 1, mutant 1 × 10^-9 mol
[9] = target: human p75-Tumor-Necrosis-Factor-Receptor on U937 cells (human) (UniProt P20333); experiment: 125I-TNF-α competition, U937 cells, exp 1, mutant 2 × 10^-6 mol
[10] = target: human p75-Tumor-Necrosis-Factor-Receptor on U937 cells (human) (UniProt P20333); experiment: 125I-TNF-α competition, U937 cells, exp 1, mutant 5 × 10^-7 mol
[11] = target: human p75-Tumor-Necrosis-Factor-Receptor on U937 cells (human) (UniProt P20333); experiment: 125I-TNF-α competition, U937 cells, exp 1, mutant […] 10^-7 mol
[12] = target: human p75-Tumor-Necrosis-Factor-Receptor on U937 cells (human) (UniProt P20333); experiment: 125I-TNF-α competition, U937 cells, exp 1, mutant […] 10^-8 mol
[13] = target: human p75-Tumor-Necrosis-Factor-Receptor on U937 cells (human) (UniProt P20333); experiment: 125I-TNF-α competition, U937 cells, exp 2, mutant 1 × 10^-6 mol
[14] = target: human p75-Tumor-Necrosis-Factor-Receptor on U937 cells (human) (UniProt P20333); experiment: 125I-TNF-α competition, U937 cells, exp 2, mutant 2 × 10^-6 mol
[15] = target: human p75-Tumor-Necrosis-Factor-Receptor on U937 cells (human) (UniProt P20333); experiment: 125I-TNF-α competition, U937 cells, exp 2, mutant 3 × 10^-8 mol
[16] = target: human p75-Tumor-Necrosis-Factor-Receptor on U937 cells (human) (UniProt P20333); experiment: 125I-TNF-α competition, U937 cells, exp 2, mutant 4 × 10^-9 mol
[17] = target: human p75-Tumor-Necrosis-Factor-Receptor on U937 cells (human) (UniProt P20333); experiment: 125I-TNF-α competition, U937 cells, exp 2, mutant 5 × 10^-7 mol
[18] = target: human p75-Tumor-Necrosis-Factor-Receptor on U937 cells (human) (UniProt P20333); experiment: 125I-TNF-α competition, U937 cells, exp 2, mutant 6 × 10^-8 mol
[19] = target: human p75-Tumor-Necrosis-Factor-Receptor on U937 cells (human) (UniProt P20333); experiment: 125I-TNF-α competition, U937 cells, exp 2, mutant 8 × 10^-9 mol
[20] = target: human p75-Tumor-Necrosis-Factor-Receptor on U937 cells (human) (UniProt P20333); experiment: 125I-TNF-α competition, U937 cells, exp 2, mutant […] 10^-7 mol
[21] = target: human p75-Tumor-Necrosis-Factor-Receptor on U937 cells (human) (UniProt P20333); experiment: 125I-TNF-α competition, U937 cells, exp 1, mutant 2 × 10^-9 mol
[22] = target: human p75-Tumor-Necrosis-Factor-Receptor on U937 cells (human) (UniProt P20333); experiment: 125I-TNF-α competition, U937 cells, exp 1, mutant 4 × 10^-9 mol
[23] = target: human p75-Tumor-Necrosis-Factor-Receptor on U937 cells (human) (UniProt P20333); experiment: 125I-TNF-α competition, U937 cells, exp 1, mutant 8 × 10^-9 mol
[24] = target: human p75-Tumor-Necrosis-Factor-Receptor on U937 cells (human) (UniProt P20333); experiment: 125I-TNF-α competition, U937 cells, exp 1, mutant 3.2 × 10^-8 mol
[25] = target: human p75-Tumor-Necrosis-Factor-Receptor on U937 cells (human) (UniProt P20333); experiment: 125I-TNF-α competition, U937 cells, exp 1, mutant 6.4 × 10^-8 mol
[26] = target: human p75-Tumor-Necrosis-Factor-Receptor on U937 cells (human) (UniProt P20333); experiment: 125I-TNF-α competition, U937 cells, exp 2, mutant 1.2 × 10^-7 mol
[27] = target: human p75-Tumor-Necrosis-Factor-Receptor on U937 cells (human) (UniProt P20333); experiment: 125I-TNF-α competition, U937 cells, exp 2, mutant 1.5 × 10^-8 mol
[28] = target: human p75-Tumor-Necrosis-Factor-Receptor on U937 cells (human) (UniProt P20333); experiment: 125I-TNF-α competition, U937 cells, exp 1, mutant 1.25 × 10^-7 mol
[29] = target: native human p75-TNF-R purified from HL60 cells (human) (UniProt P20333); experiment: competition with 125I-TNFα for p75-TNF-R, calculated from FIG. 1 (and FIG. 7)
[30] = target: native human p75-TNF-R purified from HL60 cells (human) (UniProt P20333); experiment: from the IC50 values of Table F, competition with 125I-TNFα; reference: the same mutein on p55-TNF-R
[31] = target: human p75-Tumor-Necrosis-Factor-Receptor on U937 cells (human) (UniProt P20333); experiment: 125I-TNF-α competition, U937 cells, exp 1, mutant 3 × 10^-8 mol
[32] = target: human p75-Tumor-Necrosis-Factor-Receptor on U937 cells (human) (UniProt P20333); experiment: 125I-TNF-α competition, U937 cells, exp 1, mutant 6 × 10^-8 mol
[33] = target: human p75-Tumor-Necrosis-Factor-Receptor on U937 cells (human) (UniProt P20333); experiment: 125I-TNF-α competition, U937 cells, exp 1, mutant 1.5 × 10^-8 mol
[34] = target: human p75-Tumor-Necrosis-Factor-Receptor on U937 cells (human) (UniProt P20333); experiment: 125I-TNF-α competition, U937 cells, exp 2, mutant 1.10^-6 as printed
[35] = target: human p75-Tumor-Necrosis-Factor-Receptor on U937 cells (human) (UniProt P20333); experiment: 125I-TNF-α competition, U937 cells, exp 2, mutant 4 × 10^9 as printed
[36] = target: human p75-Tumor-Necrosis-Factor-Receptor on U937 cells (human) (UniProt P20333); experiment: 125I-TNF-α (batch 2) competition, U937 cells, exp 3, mutant 1 × 10^-6 mol
[37] = target: human p75-Tumor-Necrosis-Factor-Receptor on U937 cells (human) (UniProt P20333); experiment: 125I-TNF-α (batch 2) competition, U937 cells, exp 3, mutant 2 × 10^-6 mol
[38] = target: human p75-Tumor-Necrosis-Factor-Receptor on U937 cells (human) (UniProt P20333); experiment: 125I-TNF-α (batch 2) competition, U937 cells, exp 3, mutant 3 × 10^-8 mol
[39] = target: human p75-Tumor-Necrosis-Factor-Receptor on U937 cells (human) (UniProt P20333); experiment: 125I-TNF-α (batch 2) competition, U937 cells, exp 3, mutant 4 × 10^-9 mol
[40] = target: human p75-Tumor-Necrosis-Factor-Receptor on U937 cells (human) (UniProt P20333); experiment: 125I-TNF-α (batch 2) competition, U937 cells, exp 3, mutant 5 × 10^-7 mol
[41] = target: human p75-Tumor-Necrosis-Factor-Receptor on U937 cells (human) (UniProt P20333); experiment: 125I-TNF-α (batch 2) competition, U937 cells, exp 3, mutant 6 × 10^-8 mol
[42] = target: human p75-Tumor-Necrosis-Factor-Receptor on U937 cells (human) (UniProt P20333); experiment: 125I-TNF-α (batch 2) competition, U937 cells, exp 3, mutant 8 × 10^-9 mol
[43] = target: human p75-Tumor-Necrosis-Factor-Receptor on U937 cells (human) (UniProt P20333); experiment: 125I-TNF-α (batch 2) competition, U937 cells, exp 3, mutant […] 10^-7 mol
[44] = target: human p75-Tumor-Necrosis-Factor-Receptor on U937 cells (human) (UniProt P20333); experiment: 125I-TNF-α (batch 2) competition, U937 cells, exp 3, mutant 1.5 × 10^-8 mol
[45] = target: human p75-Tumor-Necrosis-Factor-Receptor on U937 cells (human) (UniProt P20333); experiment: 125I-TNF-α (batch 2) competition, U937 cells, exp 3, mutant 1.25 × 10^-7 mol

UniProt P20333, sequence (P20333 other isoform, or with tags, fused parts or gaps): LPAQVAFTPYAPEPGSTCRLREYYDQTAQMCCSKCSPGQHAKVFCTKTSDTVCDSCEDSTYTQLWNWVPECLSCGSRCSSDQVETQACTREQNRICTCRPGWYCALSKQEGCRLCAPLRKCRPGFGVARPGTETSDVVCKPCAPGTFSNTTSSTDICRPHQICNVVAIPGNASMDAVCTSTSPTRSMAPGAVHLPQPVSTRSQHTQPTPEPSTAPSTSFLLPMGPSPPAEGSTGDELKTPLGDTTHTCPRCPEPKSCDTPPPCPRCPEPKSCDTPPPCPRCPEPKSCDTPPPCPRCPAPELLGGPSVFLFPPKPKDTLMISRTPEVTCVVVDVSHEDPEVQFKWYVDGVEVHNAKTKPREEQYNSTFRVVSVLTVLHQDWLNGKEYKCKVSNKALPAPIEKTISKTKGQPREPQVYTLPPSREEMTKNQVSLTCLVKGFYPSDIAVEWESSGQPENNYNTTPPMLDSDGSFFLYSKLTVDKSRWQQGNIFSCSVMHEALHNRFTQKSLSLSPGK
UniProt P19438, sequence (P19438 30-455): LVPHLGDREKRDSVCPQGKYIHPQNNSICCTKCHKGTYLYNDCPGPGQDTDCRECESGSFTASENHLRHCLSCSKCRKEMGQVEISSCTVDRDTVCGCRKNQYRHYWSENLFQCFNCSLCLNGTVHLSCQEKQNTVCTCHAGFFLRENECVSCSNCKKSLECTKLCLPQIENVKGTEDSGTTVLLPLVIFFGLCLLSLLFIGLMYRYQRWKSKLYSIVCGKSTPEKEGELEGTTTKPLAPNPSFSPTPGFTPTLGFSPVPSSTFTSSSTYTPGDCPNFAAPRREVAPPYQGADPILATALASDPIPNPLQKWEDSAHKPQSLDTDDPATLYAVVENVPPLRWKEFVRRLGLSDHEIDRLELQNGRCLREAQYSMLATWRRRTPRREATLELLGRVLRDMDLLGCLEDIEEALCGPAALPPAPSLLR

Substance: Ser^29 -TNFα (ligand)
- specific activity (U/mg), cytotoxicity assay on Hep-2 cells [2]: 9.3e+06 U/mg
- specific activity on Hep-2 cells, relative value in percentage to TNF-α [2]: 32%
- increase in KD-value by a factor, against TNF-α [3]: > 100 fold
- affinity, relative value in percentage to TNF-α [4]: 0.49%
- Decrease in Affinity (with respect to TNFα) [5]: 250
- fold reduction of binding affinity against its affinity to p55-TNF-R [6]: 50 fold
- percent of its binding affinity to p55-TNF-R [6]: 2%
- Mean dpm [7]: 632 dpm
- Mean dpm [8]: 1870 dpm
- Mean dpm [9]: 533 dpm
- Mean dpm [10]: 949 dpm
- Mean dpm [11]: 983 dpm
- Mean dpm [12]: 1580 dpm
- Mean dpm [13]: 263 dpm
- Mean dpm [14]: 238 dpm
- Mean dpm [15]: 572 dpm
- Mean dpm [16]: 635 dpm
- Mean dpm [17]: 319 dpm
- Mean dpm [18]: 489 dpm
- Mean dpm [19]: 603 dpm
- Mean dpm [20]: 380 dpm
- Mean dpm [21]: 1780 dpm
- Mean dpm [22]: 1720 dpm
- Mean dpm [23]: 1710 dpm
- Mean dpm [24]: 1420 dpm
- Mean dpm [25]: 1320 dpm
- Mean dpm [26]: 413 dpm
- Mean dpm [27]: 641 dpm
- Mean dpm [28]: 1200 dpm
- IC50 [29]: 2.5 µg/mL
- selectivity factor S (IC50 p75-TNF-R against IC50 p55-TNF-R) [30]: 28

Substance: Tyr^29 -TNFα (ligand)
- selectivity factor S (IC50 p75-TNF-R against IC50 p55-TNF-R) [1]: 110

Substance: Tyr^32 -TNFα (ligand)
- selectivity factor S (IC50 p75-TNF-R against IC50 p55-TNF-R) [1]: 90

The next lines start with results.

- selectivity factor S (IC50 p75-TNF-R against IC50 p55-TNF-R) [1]: 80
Substance: Gly^29 -TNFα (ligand)

- selectivity factor S (IC50 p75-TNF-R against IC50 p55-TNF-R) [1]: 450
Substance: Ser^29 -Trp^32 -TNFα (ligand)

- Decrease in Affinity (with respect to TNFα) [5]: 500
- IC50 [29]: 5 µg/mL
- selectivity factor S (IC50 p75-TNF-R against IC50 p55-TNF-R) [30]: 294
Substance: Trp^32 -TNFα (ligand)
- specific activity (U/mg), cytotoxicity assay on Hep-2 cells [2]: 4.5e+07 U/mg
- specific activity on Hep-2 cells, relative value in percentage to TNF-α [2]: 155%
- increase in KD-value by a factor, against TNF-α [3]: > 100 fold
- affinity, relative value in percentage to TNF-α [4]: 0.71%
- fold reduction of binding affinity against its affinity to p55-TNF-R [6]: 33 fold
- percent of its binding affinity to p55-TNF-R [6]: 3%
- Mean dpm [7]: 777 dpm
- Mean dpm [8]: 1920 dpm
- Mean dpm [9]: 628 dpm
- Mean dpm [10]: 953 dpm
- Mean dpm [11]: 1030 dpm
- Mean dpm [14]: 294 dpm
- Mean dpm [15]: 585 dpm
- Mean dpm [17]: 422 dpm
- Mean dpm [18]: 546 dpm
- Mean dpm [19]: 629 dpm
- Mean dpm [20]: 479 dpm
- Mean dpm [21]: 1700 dpm
- Mean dpm [31]: 1380 dpm
- Mean dpm [22]: 1660 dpm
- Mean dpm [32]: 1330 dpm
- Mean dpm [23]: 1580 dpm
- Mean dpm [26]: 508 dpm
- Mean dpm [27]: 636 dpm
- Mean dpm [33]: 1490 dpm
- Mean dpm [28]: 1170 dpm
- Mean dpm [34]: 357 dpm
- Mean dpm [35]: 653 dpm
- Mean dpm [36]: 1190 dpm
- Mean dpm [37]: 814 dpm
- Mean dpm [38]: 3280 dpm
- Mean dpm [39]: 4760 dpm
- Mean dpm [40]: 1470 dpm
- Mean dpm [41]: 3030 dpm
- Mean dpm [42]: 4040 dpm
- Mean dpm [43]: 1980 dpm
- Mean dpm [44]: 3620 dpm
- Mean dpm [45]: 2390 dpm
